Results reported in publication PMC13638050 (PLOS Biology, 2026).
Where a chain is given by its changes, count along the chain named. Names and notes keep the numbering of the source.

T1: influenza B/Lee/1940 (B/Lee40) HA (influenza B virus B/Lee/1940, biotin on the BirA biotinylation site (BirA kit))
T1 construct: source: Sf9 (baculovirus), purified from the supernatant (Ni Sepharose excel, SEC)
T1 chain: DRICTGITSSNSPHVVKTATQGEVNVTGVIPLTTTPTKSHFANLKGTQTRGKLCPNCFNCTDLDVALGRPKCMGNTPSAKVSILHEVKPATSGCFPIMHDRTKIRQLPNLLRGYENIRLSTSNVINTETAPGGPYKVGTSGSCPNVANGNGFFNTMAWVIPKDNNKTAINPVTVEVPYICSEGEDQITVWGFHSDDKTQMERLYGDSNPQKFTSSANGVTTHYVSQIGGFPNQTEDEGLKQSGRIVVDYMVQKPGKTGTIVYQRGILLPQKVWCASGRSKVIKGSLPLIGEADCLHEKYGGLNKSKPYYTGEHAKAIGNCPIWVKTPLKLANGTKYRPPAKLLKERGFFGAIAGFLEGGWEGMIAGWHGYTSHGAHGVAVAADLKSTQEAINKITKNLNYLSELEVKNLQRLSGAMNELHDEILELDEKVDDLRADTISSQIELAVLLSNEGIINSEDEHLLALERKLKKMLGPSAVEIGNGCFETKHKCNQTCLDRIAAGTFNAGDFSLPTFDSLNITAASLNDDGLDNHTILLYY

B1: germline CR9114 Fab (inferred germline of CR9114) (Fab, V domains shown)
VH: QVQLVQSGAEVKKPGSSVKVSCKASGGTFSSYAISWVRQAPGQGLEWMGGIIPIFGTANYAQKFQGRVTITADKSTSTAYMELSSLRSEDTAVYYCARHGNYYYYYGMDVWGQGTTVTVS
VL: SYVLTQPPAVSGTPGQRVTISCSGSDSNIGRRSVNWYQQFPGTAPKLLIYSNDQRPSVVPDRFSGSKSGTSASLAISGLQSEDEAEYYCAAWDDSLKGAVFGGGTQLTVL
B2: somatic CR9114 Fab VH S24F (Fab, V domains shown)
VH: QVQLVQSGAEVKKPGSSVKVSCKFSGGTSNNYAISWVRQAPGQGLDWMGGISPIFGSTAYAQKFQGRVTISADIFSNTAYMELNSLTSEDTAVYFCARHGNYYYYSGMDVWGQGTTVTVSS
VL: B1 VL
B3: somatic CR9114 Fab VH S52G (Fab, V domains shown)
VH: B2 VH with F24S, S52G
VL: B1 VL
B4: somatic CR9114 Fab VH S52V (Fab, V domains shown)
VH: B2 VH with F24S, S52V
VL: B1 VL
B5: somatic CR9114 Fab VH I73W (Fab, V domains shown)
VH: B2 VH with F24S, I74W
VL: B1 VL
B6: somatic CR9114 Fab VH S24L (Fab, V domains shown)
VH: B2 VH with F24L
VL: B1 VL

Legend:
[1] = target: H1 stem (recombinant HA stem construct #4900 designed based on H1N1 A/Brisbane/59/2007 HA) (influenza A virus H1N1 …, biotin on the BirA biotinylation site (BirA kit)); test: BLI; details: both partners purified
[2] = target: T1, influenza B/Lee/1940 (B/Lee40) HA; test: BLI; details: both partners purified

Binder | Kd [1] [nM] | binding result [2]
B1 | 185 | –
B2 | – | no binding
B3 | – | no binding
B4 | – | no binding
B5 | – | no binding
B6 | – | no binding
